Experimental data as given in article PMC3107159, “Resistance to organic hydroperoxides requires ohr and ohrR genes in Sinorhizobium meliloti” (BMC Microbiology, 2011).
Positions count from the first letter of the chain named.

T1: OhrR (Sinorhizobium meliloti Rm1021 (S. meliloti chromosomal DNA; Rm1021?)) (UniProt Q92MX6)
T1 sequence: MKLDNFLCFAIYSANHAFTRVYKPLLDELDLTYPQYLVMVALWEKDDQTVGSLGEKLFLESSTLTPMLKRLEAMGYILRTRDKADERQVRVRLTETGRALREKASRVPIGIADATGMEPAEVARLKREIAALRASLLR

T2: OhrR (Sinorhizobium meliloti, UniProt Q92RD0)
T2 construct: gene SMc00098; full-length ORF in pET22b+, C-terminal 6His tag kept, E. coli BL21(DE3), heparin column; homodimer
T2 sequence (Q92RD0 1-158): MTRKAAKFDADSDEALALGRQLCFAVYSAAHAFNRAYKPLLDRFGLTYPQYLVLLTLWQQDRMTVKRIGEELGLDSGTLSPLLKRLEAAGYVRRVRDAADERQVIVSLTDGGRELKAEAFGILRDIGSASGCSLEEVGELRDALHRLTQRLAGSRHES

T3: OhrR (Sinorhizobium meliloti Rm1021 (S. …, UniProt Q92MX6 1-138))
T3 sequence: T1 sequence

B1: M1 60 bp (dsDNA)
DNA 1: GGGGGGGAAGCTAGTCACCGCAAATTAATTTTGCGATACTAGAGAGATGCATATGGGGGG
DNA 2: CCCCCCATATGCATCTCTCTAGTATCGCAAAATTAATTTGCGGTGACTAGCTTCCCCCCC
B2: Mut2 60 bp (AAA to CCC in motif 1) (dsDNA)
DNA 1: B1 DNA 1 with A22C, A23C, A24C
DNA 2: B1 DNA 2 with T37G, T38G, T39G
B3: Mut1 60 bp (GC to AA in motif 1) (dsDNA)
DNA 1: B1 DNA 1 with G20A, C21A
DNA 2: B1 DNA 2 with G40T, C41T
B4: M2 60 bp (dsDNA)
DNA 1: B1 DNA 1 with A27G, A28C, T32G, G33C
DNA 2: B1 DNA 2 with C28G, A29C, T33G, T34C

What was measured:
[1] = target: T1, OhrR (Sinorhizobium meliloti Rm1021 (S. meliloti chromosomal DNA; Rm1021?)); experiment: EMSA; settings: 20 mM Tris-HCl pH 8.0, 50 mM KCl, 1 mM EDTA, 50 uM BSA, room temperature 10 min, 20 ul, 20 pmol DNA, 0-100 pmol OhrR, 6% PAGE in Tris-borate, SYBR gold
OhrR [2] = target: T2, OhrR; experiment: non-reducing SDS-PAGE of oxidised protein; type: binding; settings: covalent oxidation, reversible intersubunit disulfide dimer; 15 min incubation; 0.55 nM CuOOH as printed; reversed by DTT
OhrR [3] = target: T3, OhrR; experiment: EMSA; 1 mM DTT; 20 mM Tris-HCl pH 8.0, 50 mM KCl, 1 mM EDTA, 50 uM BSA, room temperature 10 min, 20 ul; 20 pmol DNA, 0-100 pmol OhrR; 6% PAGE in Tris-borate, SYBR gold; 1 mM DTT in Fig 3C; settings: protein: recombinant; tags: C-terminal 6xHis (pET22b+); chain copies: 2; label: none (SYBR gold stain); blunt

Molecule	binding result (OhrR [3])	further results
CATGACAGTCTCCTTCCTTGTGGTTGCCGGATTTATATATCGCAAGATTAAATAGCGCGCAAATTAATTTTGCAAATTGCTTTGCCGGCGTGAATTTGCGACAATGACATCAT (double strand) [ohr-ohrR intergenic region 113 bp]		binding [1]: binds
CC(C)(OO)c1ccccc1 [CuOOH]		non-reducing SDS-PAGE of oxidised protein (OhrR [2]): Incubation of the protein with CuOOH or H2O2 led to the formation of a band
B1	binds	
B2	no binding	
B3	no binding	
B4	binds	
